Experimental data published in patent publication US20090291088A1, “THERAPEUTIC COMBINATIONS OF ANTI-IGF-1R ANTIBODIES AND OTHER COMPOUNDS” (Biogen Idec MA Inc., priority 2008, published 2009).
Numbering of substitutions follows the chain as printed.

B1: 20C8.3B8: murine anti-human IGF-1R monoclonal antibody from hybridoma; VH SEQ ID NO:43, VL SEQ ID NO:103 (antibody, V domains shown)
VH: DVQLQESGPDLVKPSQSLSLTCTVTGYSITSGYSWHWIRQFPGNKLEWMGYIHYSGGTNYNPSLKSRISITRDTSKNQFFLQLNSVTTEDTATYYCARSGYGYRSAYYFDYWGQGTTVTVSS
VL: DIVLTQSPASLAVSLGQRATISCRASKSVSTSAYSYMHWYQQKPGQPPKLLIYLASNLESGVPARFSGSGSGTDFTLNIHPVEEEDAATYYCQHSRELPYTFGGGTKLEIK
modifications: Antibody variable heavy chain sequence; Antibody variable light chain sequence
B2: 20D8.24B11: murine anti-human IGF-1R monoclonal antibody from hybridoma; VH SEQ ID NO:53, VL SEQ ID NO:103 (antibody, V domains shown)
VH: B1 VH with V118L
VL: B1 VL
modifications: Antibody variable heavy chain sequence; Antibody variable light chain sequence
B3: Fab M12-E01: human anti-human IGF-1R Fab from phage display library; VH SEQ ID NO:4, VL SEQ ID NO:68 (antibody, V domains shown)
VH: EVQLLESGGGLVQPGGSLRLSCAASGFTFSPYSMLWVRQAPGKGLEWVSSIGSSGGSTRYADSVKGRFTISRDNSKNTLYLQMNSLRAEDTAMYYCARVRGILHYDILIGRNLYYYYMDVWGKGTTVTVSS
VL: QYELTQPPSVSEAPRQRVTISCSGSSSNIGNNAINWYQQLPGKPPKLLIYYDDLLPSGVSDRFSGSKSGTSGSLAISGLQSEDEADYYCAAWDDNLNGVIFGGGTKLTVL
modifications: Antibody variable heavy chain sequence; Antibody variable light chain sequence
B4: M14-C03: anti-IGF-1R antibody, allosteric blocker of IGF-1 and IGF-2 (antibody, V domains shown)
VH: EVQLLESGGGLVQPGGSLRLSCAASGFTFSKYMMSWVRQAPGKGLEWVSYISPSGGLTWYADSVKGRFTISRDNSKNTLYLQMNSLRAEDTAVYYCARDGARGYGMDVWGQGTTVTVSS
VL: DIQMTQSPATLSLSPGERATLSCRASQSVSSYLAWYQQKPGQAPRLLIYDASNRATGIPARFSGSGSGTDFTLTISSLEPEDFAVYYCQQRSNWPPEVTFGPGTKVDIK
modifications: Antibody variable heavy chain sequence; Antibody variable light chain sequence

Target: T1, IGF-1R (Homo sapiens, UniProt P08069)
T1 construct: human IGF-1R(1-903)-Fc (denoted hIGF-1R-Fc, generated by Biogen Idec)
Assay: Ligand blocking assay (RIA): 125I-IGF-1 / 125I-IGF-2 binding to immobilized IGF-1R
Excerpt: Ligand blocking assay (RIA). […] Insulin (Arg-Insulin, Cat #01-207) was purchased from Upstate Cell Signaling Solutions (Lake Placid, N.Y. (now part of Millipore, Concord, Mass. (USA)). ^125I-rhIGF-1 (Cat # IM172), ^125I-rhIGF-2 (Cat# IM238) and ^125I-rhInsulin (Cat# IM166) were purchased from Amersham Biosciences (Piscataway, N.J.). AffiPure goat anti-human IgG, Fcγ fragment specific antibodies (Cat #109-005-098, Jackson ImmunoResearch, West Grove, Pa.) was used for IGF-1R-Fc capture. As detection antibody, goat anti-mouse IgG HRP (Cat #1030-05, Southern Biotech Birmingham, Ala.) was used.
Human insulin receptor α-subunit specific antibodies, Clone 83-14, (Cat #AHR0221, Biosource International, Inc., Camarillo, Calif.) and the 47-9 (Cat #E55502M, Biodesign International, Saco, M E) were used as positive controls blocking of insulin-insulin receptor binding experiments. Recombinant IGF-1R-Fc fusion protein was produced at Biogen Idec (Cambridge, Mass.).
As isotype matched mouse negative control antibodies, 2B8 (murine α-CD20.1gG,) and 2B8 mkm.G2a (murine α-CD20 MAb, IgG2a, Biogen Idec, Lot #NB3304-87, San Diego, Calif.) were used. The negative control for Fabs was R001-1B provided by Christilyn Graff (Biogen Idec, Cambridge, Mass.). PBS used in buffers was from BioWhittaker (Cat. # 17-513F, Walkersville, Md.).
Recombinant human IGF-1R (Histidine tagged version) or IGF-1R-Fc was coated onto IMMULON2 HB (high binding) Removawell strips (Dynex Technologies, Inc., cat. #6302) diluted with carbonate coating buffer pH 9.5 to a concentration of 250 ng/well. After overnight incubation at 4° C., the wells were washed three times with washing buffer (0.05% Tween 20/PBS) then blocked with blocking buffer (3% BSA/PBS) for one hour at room temperature. The blocking buffer was removed and the wells washed three more times. Antibody, Fab, or ligand preparations were diluted to desired concentration with dilution buffer (1% BSA/0.05% Tween 20/PBS) and plated at 50 μl per well in duplicate. After 45 minutes at room temperature, 100,000 cpm of either [125I] rhIGF-1 or [125I] rhIGF-2 in 50 μl dilution buffer was added per well. This was incubated at room temperature for one more hour. The wells were washed again three more times and left liquid free after the last wash. The air-dried wells were counted with the Isodata Gamma Counter.
Alternatively, Fabs were evaluated by a modified capture assay, where the IGF-1R-Fc was captured using anti-human IgG immobilized to a plate. Immobilization was carried out by overnight incubation of goat anti-human IgG, Fcγ fragment specific antibody (200 ng/well) in carbonate coating buffer. The wells were washed, blocked and 250 ng of IGF-1R-Fc was added per well.
The ligand blocking ability of the anti-IGF-1R antibody was determined by a solid phase RIA capture method as described in Example 3. […] After 1 hour of incubation at room temperature, the wells were washed and counted for bound radioactivity by a Gamma Counter. An isotype matched negative antibody control, IDEC-151 (human G4), was used. Percent (%) inhibition was calculated as =[1−(Ave.CPM with Ab)/(Ave.CPM with buffer)]×100%.

Row | Molecule | IGF Blocking IGF-1 (murine monoclonal antibodies) | IGF Blocking IGF-2 (murine monoclonal antibodies) | IGF Blocking IGF-2 (Fabs, 125I-IGF-2)
1 | B1 | +++ (>40%@0.1 μg/ml) | +++ (>40%@0.1 μg/ml) | –
2 | B2 | +++ (>40%@0.1 μg/ml) | +++ (>40%@0.1 μg/ml) | –
3 | B3 | – | – | ++ (>30%@1ug/ml)
4 | B4 | – | – | + (>30%@10ug/ml)
